This is an account of results in the Immune Epitope Database (IEDB).

The target of one experiment is HLA-A*02:01. Put plainly: IEDB peptide-MHC binding, purified MHC/competitive/radioactivity; ≥ and ≤ were set here for values at or beyond the usual limits of such assays. As to conditions: source organism: Influenza A virus.
In the case of QIAILVTTV, the half-inhibitory concentration (IC50) (in general, the concentration needed to halve the response being measured) came out at 1090 nM.
On to RTMAWTVVNSI, for which the 50% inhibitory concentration (IC50) was 650 nM.

Still in this experiment, the particulars now being: source organism: Mammarenavirus brazilense.
Consider GQLFSFFEEV, for which the IC50 was found to be 33 nM.
As to FQLIFFLTL, the IC50 came to 353 nM.
Consider EAINIALIAV, for which the IC50 was found to be 1480 nM.
Same read-out and setting: the result for FTTTLFLHLV reads 473 nM.

Still in this experiment, the particulars now being: source organism: Mammarenavirus choriomeningitidis.
NISGYNFSL: the IC50 is 642 nM.
The same measure, in the same setting: with NLNQVIQSV the figure was 28 nM.

Staying with this experiment, now noted: source organism: Mammarenavirus juninense.
For the sequence ALVAVSLIAI, the IC50 was 324 nM.
Same read-out and setting: with SLIAIIKGIV the figure was 763 nM.

Staying with this experiment, now noted: source organism: Mammarenavirus lassaense.
With GTMPSLTLA, the IC50 turned out to be 1670 nM.

The same experiment, now with this note: source organism: Mammarenavirus machupoense.
TMNSVVQAL: the 50% inhibitory concentration (IC50) is 1250 nM.
Consider EALNIALVAV, for which the IC50 was 341 nM.
Same read-out and setting: with SLIKSTLQV the figure was 248 nM; with DAMPGVLSYV, 44 nM.
The same measure, in the same setting: with MVDEEPAAL the figure was 998 nM.

Still in this experiment, the particulars now being: source organism: Mammarenavirus whitewaterense.
For the sequence MINDTHFLL, the IC50 was 265 nM.
As to CMINDTHFLL, the IC50 turned out to be 66 nM.
Same read-out and setting: with ALNIALIAV the figure was 19 nM; with GLVDVCFWST, 71 nM.
Turning to FTMEWFLSGL, the IC50 was 70 nM.

Still in this experiment, the particulars now being: source organism: Vaccinia virus WR.
For DMIDNLNIV, the IC50 is 2360 nM.
The same measure, in the same setting: with STEERHIFL the figure was 2250 nM; with RTVIHLEWL, 514 nM; with MLLALVALV, 0.42 nM.
Still for that read-out and setting: the result for GLKKIIQRV reads 1700 nM; that for KVFFGPIYYL, 18 nM; that for YMMGIEYGL, 0.12 nM.
Still for that read-out and setting: with GLFIYIPGT the figure was 19 nM; with KLVSISNFI, 6.3 nM.
As to NLNIVRDML, the IC50 was determined as 2760 nM.
Still for that read-out and setting: with PVLMFLLFYV the figure was 69 nM.
On to FLHNYILYA, for which the IC50 is 0.54 nM.
On the same count and under the same terms, with FMAYTTSHI the figure was 3.2 nM; with FMYFCEQKL, 1.9 nM.
With KLSCAVHLI, the IC50 was found to be 3.2 nM.
Same read-out and setting: with YLGMFNPYSL the figure was 0.16 nM.
The same measure, in the same setting: with YLVNAIIDSA the figure was 134 nM.
On to PLLFILFYFA, for which the IC50 came out at 42 nM.
ILASIIDYV: the IC50 came to 0.61 nM.
Turning to KLRPNSFWFV, the IC50 stood at 2 nM.
On the same count and under the same terms, with FLSLMSLSI the figure was 3.5 nM; with TVSDYISEL, 128 nM.
On to SQMTSTFIM, for which the IC50 is 85 nM.
On the same count and under the same terms, the result for YVLFTVMTYV reads 1 nM; that for GAENIVFNL, 4720 nM.
The same measure, in the same setting: with YVTKKNNNI the figure was 505 nM.
On to KLTDKKTFI, for which the IC50 turned out to be 1120 nM.
As for FIFTGITLFL, the IC50 amounted to 0.92 nM.
On the same count and under the same terms, the result for ALLVATDPDA reads 606 nM; that for TMFKIVYSL, 9.3 nM.
As for ILPCPQINTL, the IC50 was found to be 1380 nM.
Take IVVELEPSL: the IC50 came to 2110 nM.
As to KTSTLIFFV, the half-inhibitory concentration (IC50) worked out at 1 nM.
With HLNPSRIRI, the IC50 turned out to be 956 nM.
On the same count and under the same terms, the result for ILTAILFFM reads 35 nM.
On the same count and under the same terms, the result for YILRGLLEA reads 2.5 nM.
Regarding YTYFSNTILL, the IC50 worked out at 189 nM.
On the same count and under the same terms, the result for FIGYMVKNV reads 443 nM; that for SMISRHCCI, 986 nM.
The same measure, in the same setting: with FLIVSLCPT the figure was 1.5 nM.
Same read-out and setting: with SLLVAPMPT the figure was 935 nM.
With TLDNILGIL, the IC50 turned out to be 67 nM.
In the case of VMNNLSELT, the IC50 was 2080 nM.
Still for that read-out and setting: the result for KTITTCYLM reads 445 nM; that for YLKIGTLLV, 17 nM.
For YLFTFTIYT, the IC50 was 3.3 nM.
In the case of STLIVTIYV, the IC50 is 677 nM.
Turning to KLSDVGHQYA, the 50% inhibitory concentration (IC50) was found to be 21 nM.
For the sequence YQMLLALVAL, the IC50 turned out to be 1.5 nM.
As for TVASAQIHL, the IC50 came to 3130 nM.
Same read-out and setting: the result for RMILYLESV reads 1.8 nM; that for AVVYSTCTV, 104 nM; that for RLSTEERHI, 708 nM.
Still for that read-out and setting: the result for GLDVKNVQLV reads 313 nM; that for SLLVIWILIV, 1020 nM; that for KANCTAESST, 2760 nM.
On to LTIMGVIFL, for which the 50% inhibitory concentration (IC50) was 608 nM.
On the same count and under the same terms, with AALGGSVNI the figure was 1460 nM; with HMYFTFFDV, 9.1 nM.
On to YLLCCNYKL, for which the IC50 is 0.36 nM.
NTFYLFTFT: the IC50 stood at 492 nM.
Turning to TVMVKINPTL, the IC50 came out at 114 nM.
Still for that read-out and setting: with FLVFVKPTT the figure was 516 nM; with ILSDDMLNI, 7.6 nM.
As for QLEHGSCQPV, the IC50 was determined as 16 nM.
Turning to TMSAFLIVRL, the half-inhibitory concentration (IC50) was 448 nM.
On the same count and under the same terms, with KMCTVSDYI the figure was 36 nM; with ILYAAFLWL, 112 nM; with LLYAHINAL, 8.3 nM.
Still for that read-out and setting: the result for FIALWIPDL reads 1.7 nM; that for IMVTDTINT, 2360 nM.
Turning to NMQTVKLFV, the IC50 worked out at 12 nM.
With MLMFIFTGI, the IC50 came out at 0.38 nM.
Same read-out and setting: the result for YLKEYIPKA reads 1.7 nM.
Same read-out and setting: the result for KQFIQRGGL reads 3990 nM.
On the same count and under the same terms, with RLLDDLVIV the figure was 0.65 nM; with FACLMFKHLL, 1140 nM; with RINDDSKSIL, 4360 nM.
As to MLIEVILTA, the IC50 turned out to be 5 nM.
On the same count and under the same terms, the result for SLSLHPLYV reads 9.8 nM.
Consider YTINCLLYI, for which the IC50 was found to be 5.1 nM.
KLFFAKCLVV: the IC50 was found to be 2.3 nM.
On the same count and under the same terms, the result for PMLYQLLEA reads 1070 nM.
VILSPPINA: the IC50 was 872 nM.
YLVDVETIGV: the IC50 was found to be 0.17 nM.
With IIILAVLFI, the IC50 is 1660 nM.
KLFYVYYNL: the IC50 was found to be 0.49 nM.
Consider LVITINYFL, for which the IC50 came to 25 nM.
On the same count and under the same terms, with VVTLLCVLPA the figure was 262 nM; with SMFLMTATL, 2.3 nM; with DVVILLLSSV, 907 nM.
The same measure, in the same setting: with TIGNQLYLTV the figure was 18 nM; with FLICHNLRA, 17 nM; with QLVDAIDNIV, 101 nM.
The same measure, in the same setting: the result for FQQPQFQYL reads 48 nM.
With MQRIISLSV, the IC50 stood at 454 nM.
The same measure, in the same setting: with SMPASHNNLA the figure was 1910 nM; with MMKTYIEFV, 4.7 nM.
Same read-out and setting: with FAALGGSVNI the figure was 3730 nM.
Take YTQDELINV: the IC50 was 7.3 nM.
Regarding YMATTILEMV, the IC50 turned out to be 1.5 nM.
The same measure, in the same setting: with LLLETKTILV the figure was 3.3 nM; with YAYGWIPET, 43 nM; with RLVDFFPDI, 0.14 nM.
For FTGITLFLL, the half-maximal inhibitory concentration (IC50) was determined as 130 nM.
Same read-out and setting: with VLVDNVDFAT the figure was 16 nM; with GIAHLLEHL, 3560 nM.
On to YVLLHLLVV, for which the IC50 was 101 nM.
On the same count and under the same terms, the result for IVIGVIILA reads 664 nM; that for KLVDICDRIV, 32 nM.
As for LILSLTCSV, the half-maximal inhibitory concentration (IC50) is 1.3 nM.
The same measure, in the same setting: with AIIAIVFVFI the figure was 940 nM; with TIATYIDALA, 125 nM.
On the same count and under the same terms, with FLAVLSPTI the figure was 0.66 nM.
As to ATYHIIIVAL, the IC50 was found to be 1150 nM.
As to YASIINRDI, the IC50 stood at 2230 nM.
On to NMISDTIFV, for which the 50% inhibitory concentration (IC50) is 2.2 nM.
Regarding SQYYFSMLV, the IC50 is 13 nM.
For ALFGIKLPAL, the IC50 turned out to be 2.5 nM.
Regarding KVYDKLFPV, the IC50 stood at 0.34 nM.
For the sequence FVADRLISEL, the IC50 worked out at 1880 nM.
As for FIKGFLYHT, the IC50 stood at 1320 nM.
On the same count and under the same terms, the result for IVISPMGKL reads 896 nM; that for YLIKLIEPV, 8 nM; that for AIYSAILLLV, 53 nM.
Still for that read-out and setting: with KLYLVDYGL the figure was 13 nM; with RISGSNIVI, 3670 nM.
In the case of SLNLTIVSV, the 50% inhibitory concentration (IC50) worked out at 26 nM.
The same measure, in the same setting: with KLIGITAIM the figure was 20 nM.
Same read-out and setting: with YLMPYSVYI the figure was 0.26 nM.
On the same count and under the same terms, with LMMTLPSIFL the figure was 0.2 nM; with LVDAIDNIV, 37 nM; with TMVDKPTEL, 185 nM.
In the case of ILSNYVKTLL, the IC50 turned out to be 7.5 nM.
Consider GIKSVVVPI, for which the IC50 stood at 869 nM.
On the same count and under the same terms, with IIVALTIMGV the figure was 216 nM; with AVNEEWLTAV, 390 nM.
Still for that read-out and setting: the result for FLLLTSIPI reads 0.11 nM; that for GLDLENLYA, 117 nM; that for ELIAFSSGTV, 997 nM.
Regarding IQESFIRFTV, the IC50 came to 17 nM.
Regarding KINPTLDNI, the 50% inhibitory concentration (IC50) was found to be 244 nM.
On the same count and under the same terms, with IIDREVVANV the figure was 63 nM.
The same measure, in the same setting: with TTTSEVVDML the figure was 2520 nM; with LAERFCTEV, 234 nM; with KMAGGIGLSI, 9.7 nM.
Still for that read-out and setting: with ALWIPDLFM the figure was 0.14 nM.
On to GVIEYAKSI, for which the IC50 was found to be 4180 nM.
Consider WLYGYNFII, for which the IC50 was determined as 0.19 nM.
The same measure, in the same setting: the result for FLHTTFIDV reads 0.46 nM; that for VILFIMFMLI, 384 nM.
Regarding FTFSNVCESV, the IC50 is 2.4 nM.
Turning to ALVALVITI, the IC50 turned out to be 1.9 nM.
Consider YLMDEEVPA, for which the half-maximal inhibitory concentration (IC50) amounted to 13 nM.
With TIDGRIVTL, the IC50 is 2170 nM.
Same read-out and setting: the result for FMYIESIKV reads 1.3 nM; that for GMANTTFHV, 0.41 nM; that for MMWDLKKKGL, 103 nM.
Same read-out and setting: with VIVIYIFTV the figure was 104 nM; with MMIDDFGTA, 3.2 nM.
Consider LLEAVYGNI, for which the IC50 turned out to be 864 nM.
The same measure, in the same setting: with YLLFGIKCI the figure was 27 nM; with AMFTTMYNI, 2.8 nM; with YLIHDNIMYT, 1.3 nM.
Take YLDGQLARL: the IC50 was determined as 1.3 nM.
On to SVSESNIDL, for which the IC50 was determined as 569 nM.
On the same count and under the same terms, the result for RLIVLFEVFV reads 103 nM; that for MASPENVIL, 846 nM.
Turning to YLDDHRYLFI, the IC50 was found to be 12 nM.
The same measure, in the same setting: with HLEWLLGFI the figure was 173 nM; with SLSSQMTST, 2000 nM; with LLMMTLPSI, 0.11 nM.
As to LIVLFEVFVV, the IC50 came to 2070 nM.
